Earlier results in doi:10.1101/2020.02.03.932012.

Legend:
Experiment in all cases: stability
Conditions in all cases: single buried-residue variants, ligand-free as far as stated
Glu62 = Glu62 (UniProt position 144, EASAFEKKMVE)
Lys62 = Lys62 (UniProt position 144, EASAFKKKMVE)
Glu66 = Glu66 (UniProt position 148, FTKKMEENAKK)
Lys66 = Lys66 (UniProt position 148, FTKKMKENAKK)

Question: With “Staphylococcal nuclease Delta+PHS T62E (Staphylococcus aureus; G50F;V51N;P117G;H124L;S128A;del44-49;T62E)” as the substance, how does the pKa (Glu62) read?
Answer: The pKa was 7.7.

Question: With “Staphylococcal nuclease Delta+PHS T62K (Staphylococcus aureus; G50F;V51N;P117G;H124L;S128A;del44-49;T62K)” as the substance, how does the pKa (Lys62) read?
Answer: Its pKa is 8.1.

Question: With “Staphylococcal nuclease Delta+PHS V66E (Staphylococcus aureus; G50F;V51N;P117G;H124L;S128A;del44-49;V66E)” as the substance, how does the pKa (Glu66) read?
Answer: The pKa was 8.5.

Question: With “Staphylococcal nuclease Delta+PHS V66K (Staphylococcus aureus; G50F;V51N;P117G;H124L;S128A;del44-49;V66K)” as the substance, how does the pKa (Lys66) read?
Answer: The pKa was 5.7.
